# Data taken from PMC3202057 (Journal of molecular biology, 2011).
# T1: N-terminal effector PYRIN domain of NLRP12 (residues 1-98) (human, UniProt P59046 1-98)
# T1 sequence: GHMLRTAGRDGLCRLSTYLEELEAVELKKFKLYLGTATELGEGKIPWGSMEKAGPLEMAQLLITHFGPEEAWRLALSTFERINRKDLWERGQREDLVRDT
# B1: FAF-1 UBA domain and linker region (residues 1-99) (domain or fragment, UniProt Q9UNN5 1-99, looked up)
# chain: MASNMDREMILADFQACTGIENIDEAITLLEQNNWDLVAAINGVIPQENGILQSEYGGETIPGPAFNPASHPASAPTSSSSSAFRPVMPSRQIVERQPR
# B2: FAF-1 UBA domain (residues 1-57) (domain or fragment, UniProt Q9UNN5 1-57, looked up)
# chain: MASNMDREMILADFQACTGIENIDEAITLLEQNNWDLVAAINGVIPQENGILQSEYG
# Molecular target: T1, N-terminal effector PYRIN domain of …
# Experiment: NMR titration
binder,measurement,value
B1,Kd,≥ 50 µM
B2,Kd,≥ 150 µM
